Ends that are not written are not given here.
Tests used:
[1] = P-15 bound to ABM particles after pretreatment, coating and washing (ELISA), effect of osmolarity; assay type: physicochemical, Bovine; conditions: Hepes buffer pH 7.2
Protocol: (§1) ABM particles were incubated in a buffered solution that contained varying amounts of NaCl to modulate the final osmolarity. The ABM particles were incubated in the solutions for 18-24 hours, rinsed a second time in the same buffer, and dried. The pre-treated surface modified ABM particles were then incubated with P-15 dissolved in the same buffer as used during the pre-treatment step to coat the particles with P-15 peptide. Following the P-15 coating step, the ABM particles were washed repeatedly with the corresponding buffer solution. The amount of bound P-15 was determined using an ELISA test method. The different runs represent different preparations of the same ABM source.

[2] = as above; assay type: physicochemical; conditions: Hepes buffer pH 7.2, Porcine Cancellous Run #1
Protocol: as §1

[3] = P-15 bound on final washed ABM particles, effect of pretreatment and freezing/drying technique; assay type: physicochemical
Protocol: Step 1: PRETREATMENT—ABM is pretreated in a Hypertonic (˜460 mM NaCl) HEPES buffer, pH 7.2, at a 10:1 ratio (ml solution to g ABM) for 24 hours. This solution is decanted off after 24 hours. This wash is repeated with fresh solution for 1 hour or until there is no pH change upon exposure to fresh solution. The final wash solution is decanted and the ABM is vacuum dried. The pretreatment step is performed with agitation of some kind (roller, rotation, etc.).
Step 2: COATING—A P-15 coating buffer (concentration depends on final desired P-15 coated on ABM) is made using hypertonic HEPES, pH 7.2. Pretreated ABM is coated using a 2:1 ratio (mL solution to g ABM) for 24 hours. This step is performed statically, with no agitation.
Step 3: WASHING—After the 24 hour coating step, the solution is removed by a rapid vacuum filtration process. The coated ABM is washed 6-12 times in a 10:1 ratio of solution to ABM using hypertonic HEPES buffer, pH 7.2. Vacuum filtration is performed between each wash to remove the solution. After the final wash, the washed ABM is then vacuum dried overnight.
ABM particles are produced as described in step 1 of Example 1, where step 1 further includes freezing and then drying the ABM particles subjected to hypertonic buffer.
Paired samples of pretreated ABM particles were freeze-dried (F/D) by two different methods, and a third sample was simply air dried (without any freezing). One sample was placed on a controlled ambient temperature F/D shelf and a vacuum was immediately pulled to initiate rapid evaporative freezing (FD-EC). The second sample was placed on an ambient F/D shelf and slowly frozen by ramped freezing (˜1-2° C. per minute). Once the sample was frozen the vacuum was initiated; this process is considered standard freeze-drying. The F/D process was used for both (a) the pretreatment step 1 and the washing (post-coating) step 3. The third samples was not frozen; the water was removed from the sample by air-drying at both drying steps. The following table indicates the amount of bound P15 on the final washed product. Table 4 indicates the amount of bound P-15 on the final washed ABM particles.
Paired samples of pretreated ABM particles were F/D by two different methods. One sample was placed on a controlled ambient temperature F/D shelf and a vacuum was immediately pulled to initiate rapid evaporative freezing. The second sample was placed on an uncooled shelf and a vacuum was immediately pulled to initiate evaporative cooling (vacuum oven drying). It should be noted that the rate of cooling is slower for this process due to the shelf temperature and the strength of vacuum. The F/D process was used for both (a) the pretreatment step 1 and the washing (post-coating) step 3. Table 5 indicates the amount of bound P-15 on the final washed ABM particles.
Four paired samples of pretreated ABM particles were F/D by two methods, alternately performed at the two separate drying steps. Two samples were F/D by vacuum oven drying after the pretreatment step and then dried by either the vacuum oven drying process or by FD-EC (placed on a controlled ambient temperature F/D shelf and a vacuum was immediately pulled to initiate rapid evaporative freezing) method after the P-15 coating step. The other two samples were dried by FD-EC after the pretreatment step and then dried by either the vacuum oven drying process or by FD-EC method after the P-15 coating Table 6 table indicates the amount of bound P-15 on the final washed ABM particles.
Paired samples of pretreated ABM particles were F/D by two different methods. One sample was rapidly frozen using a blast-freezer. The frozen sample was placed on a cold F/D shelf and a vacuum was immediately pulled. The second samples was placed on an uncooled shelf and a vacuum was immediately pulled to initiate evaporative cooling. The F/D process was used for both (a) the pretreatment step 1 and the washing (post-coating) step 3. […]

Question: Which “P-15 Concentration Bound to ABM Particles” value (shortened to “P-15 Concentration Bound”) ([1]; Hypertonic Solution (2.7%saline), Bovine Cancellous Run #1) does the source give for “GTPGPQGIAGQRGVV [P-15, cell adhesion (collagen mimetic) peptide coated onto ABM particles]” here?
Answer: The value was 149 ng-P-15/g-ABM.

Question: And the “P-15 Concentration Bound” value ([1]; Hypertonic Solution (2.7%saline), Bovine Cancellous Run #2)?
Answer: The value was 1024 ng-P-15/g-ABM.

Question: What about the “P-15 Concentration Bound” value ([1]; Hypertonic Solution (2.7%saline), Bovine Cortical Run #1) of the same sequence?
Answer: Its value is 153 ng ng-P-15/g-ABM.

Question: What about the “P-15 Concentration Bound” value ([1]; Hypertonic Solution (2.7%saline), Bovine Cortical Run #2) of the same sequence?
Answer: Its value is 105 ng-P-15/g-ABM.

Question: What about the “P-15 Concentration Bound” value ([1]; Hypotonic Solution (0% saline), Bovine Cancellous Run #1) of the same sequence?
Answer: Its value is 68 ng-P-15/g-ABM.

Question: What about the “P-15 Concentration Bound” value ([1]; Hypotonic Solution (0% saline), Bovine Cancellous Run #2) of the same sequence?
Answer: Its value is 651 ng-P-15/g-ABM.

Question: What about the “P-15 Concentration Bound” value ([1]; Hypotonic Solution (0% saline), Bovine Cortical Run #1) of the same sequence?
Answer: Its value is 105 ng ng-P-15/g-ABM.

Question: What about the “P-15 Concentration Bound” value ([1]; Hypotonic Solution (0% saline), Bovine Cortical Run #2) of the same sequence?
Answer: Its value is 64 ng-P-15/g-ABM.

Question: What about the “P-15 Concentration Bound” value ([1]; Isotonic Solution (0.9% saline), Bovine Cancellous Run #1) of the same sequence?
Answer: Its value is 129 ng-P-15/g-ABM.

Question: And the “P-15 Concentration Bound” value ([1]; Isotonic Solution (0.9% saline), Bovine Cancellous Run #2)?
Answer: Its value is 611 ng-P-15/g-ABM.

Question: And the “P-15 Concentration Bound” value ([1]; Isotonic Solution (0.9% saline), Bovine Cortical Run #1)?
Answer: Its value is 116 ng ng-P-15/g-ABM.

Question: What about the “P-15 Concentration Bound” value ([1]; Isotonic Solution (0.9% saline), Bovine Cortical Run #2) of the same sequence?
Answer: The value was 66 ng-P-15/g-ABM.

Question: And the “P-15 Concentration Bound” value ([2]; Hypertonic Solution (2.7%saline))?
Answer: The value was 376 ng ng-P-15/g-ABM.

Question: What about the “P-15 Concentration Bound” value ([2]; Hypotonic Solution (0% saline)) of the same sequence?
Answer: Its value is 231 ng ng-P-15/g-ABM.

Question: And the “P-15 Concentration Bound” value ([2]; Isotonic Solution (0.9% saline))?
Answer: The value was 283 ng ng-P-15/g-ABM.

Question: And the “P-15 ng/g ABM” value ([3]; Table 4, Air drying at both drying steps, no freezing)?
Answer: The value was 74 ng/g ABM.

Question: What about the “P-15 ng/g ABM” value ([3]; Table 4, Rapid freeze in freeze-dryer at pretreatment and post-coating steps) of the same sequence?
Answer: Its value is 1521 ng/g ABM.

Question: What about the “P-15 ng/g ABM” value ([3]; Table 4, Slow freeze in freeze-dryer at pretreatment and post-coating steps) of the same sequence?
Answer: The value was 366 ng/g ABM.

Question: And the “P-15 ng/g ABM” value ([3]; Table 5, Intermediate freeze in vacuum oven)?
Answer: The value was 308 ng/g ABM.

Question: And the “P-15 ng/g ABM” value ([3]; Table 5, Rapid freeze in freeze-dryer)?
Answer: The value was 4201 ng/g ABM.

Question: And the “P-15 ng/g ABM” value ([3]; Table 6, Pretreatment Step FD-EC, P-15 Coating Step FD-EC)?
Answer: The value was 351 ng/g ABM.

Question: What about the “P-15 ng/g ABM” value ([3]; Table 6, Pretreatment Step FD-EC, P-15 Coating Step Vacuum oven) of the same sequence?
Answer: Its value is 261 ng/g ABM.

Question: And the “P-15 ng/g ABM” value ([3]; Table 6, Pretreatment Step Vacuum oven, P-15 Coating Step FD-EC)?
Answer: Its value is 77 ng/g ABM.

Question: And the “P-15 ng/g ABM” value ([3]; Table 6, Pretreatment Step Vacuum oven, P-15 Coating Step Vacuum oven)?
Answer: Its value is 72 ng/g ABM.

Question: And the “P-15 ng/g ABM” value ([3]; Table 7, Blast-freeze followed by standard freeze-dryer)?
Answer: The value was 260 ng/g ABM.

Question: What about the “P-15 ng/g ABM” value ([3]; Table 7, Intermediate freeze in vacuum oven) of the same sequence?
Answer: Its value is 80 ng/g ABM.

Reference: patent US20210244857A1, “PEPTIDE-COATED CALCIUM PHOSPHATE PARTICLES” (Cerapedics, Inc., priority 2016, published 2021)
